According to patent US20230183661A1, “BICOMPATIBLE PEPTIDEBIOCOMPATIBLE PEPTIDES FOR INHIBITION OF AGGREGATION OF B-AMYLOID PROTEIN” (Catholic University Industry Academic Cooperation Foundation, priority 2017, published 2023):

What was measured:
[1] = biological target: β-amyloid (Aβ) overexpressed in nerve cells (UniProt P05067); experiment: cell-based or functional assay
[2] = biological target: β-amyloid (Aβ) overexpressed in nerve cells (UniProt P05067); experiment: Co-IP from N2a cells, relative score

Chain of Peptide 5 (β 1-5 fragment of SOD1), NABi (Natural Amyloid β Binder and Amyloid β aggregation inhibitor) (P00441 2-91): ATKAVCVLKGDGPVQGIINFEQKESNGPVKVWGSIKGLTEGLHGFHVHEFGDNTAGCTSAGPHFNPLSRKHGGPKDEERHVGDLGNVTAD

Substance	fluorescence recovery after photobleaching (FRAP) of Aβ in N2a cells, within 20 seconds [1]	fluorescence recovery after photobleaching (FRAP) of Aβ in N2a cells, within 90 seconds [1]	Binding strength with β-amyloid [2]
Peptide 5 (β 1-5 fragment of SOD1), NABi (Natural Amyloid β Binder and Amyloid β aggregation inhibitor)	50%	75%	1
Peptide 3 (β 4-6 fragment of SOD1) (from UniProt P00441 40-114)			0
Peptide 2 (β 2-7/T fragment of SOD1) (from UniProt P00441 16-145)			3.5
Peptide 6 (β 5-8 fragment of SOD1) (from UniProt P00441 81-154)			0
